Key:
[1] = target: T1, BAFF-R (B-cell activating factor receptor, TNFRSF13C) (Homo sapiens, UniProt Q96RJ3 Q96RJ3:1-76); experiment: EMSA; high-salt binding buffer; about; conditions: tags: ProSpect (Israel), human recombinant; label: 5'-32P or Cy3
T1 sequence: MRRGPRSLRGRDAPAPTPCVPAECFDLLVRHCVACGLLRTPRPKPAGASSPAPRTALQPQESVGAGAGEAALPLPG
Description: (§1) Filter binding assays were used to detect the binding affinity of the individual aptamers. The RNA pool was treated with Calf Intestinal Phoshatase (CIP) to remove the initiating 5′-triphosphate and labeled with γ-³²P-ATP by T4 polynucleotide kinase and the end-labeled RNA pool (10 nM) was incubated with BAFF-R protein (100 nM) and a 10-fold molar excess of nonspecific competitor tRNA (100 nM) in the high-salt RNA binding buffer for 30 min. A 50 μL of binding reaction was separated by a pre-wet nitrocellulose filter. After the filter was washed with 2 mL binding buffer, the radioactivity retained on the filter was counted by a multi-purpose scintillation counter (Beckman Coulter).
(§2) The binding activities of the RNA pools were further confirmed by gel shift assays. Briefly, the BAFF-R protein was serially diluted to the desired concentrations (0˜2560 nM). A constant amount of P³² end-labeled RNA (2 nM) was used. The binding reaction was performed as described above. […] Following electrophoresis the gel was exposed to a Phosphor image screen and the radioactivity was quantified using a Typhoon scanner. The dissociation constants were calculated using non-linear curve regression with a Graph Pad Prism. […] The dissociation constants (Kd) for selected aptamers (R-1, R-2 and R-14) with the target protein were calculated from a native gel mobility shift assay (FIG. 16A).

[2] = target: T1, BAFF-R (B-cell activating factor …); experiment: EMSA; about; UU linker; conditions: tags: ProSpect (Israel), human recombinant; label: 32P
Description: (§3) The binding activities of the RNA pools were further confirmed by gel shift assays. Briefly, the BAFF-R protein was serially diluted to the desired concentrations (0˜2560 nM). A constant amount of P³² end-labeled RNA (2 nM) was used. The binding reaction was performed as described above. After incubation, 25 μL of binding reaction was loaded into a 5% non-denaturing polyacrylamide gel. Following electrophoresis the gel was exposed to a Phosphor image screen and the radioactivity was quantified using a Typhoon scanner. The dissociation constants were calculated using non-linear curve regression with a Graph Pad Prism. […] The dissociation constants (Kd) for selected aptamers (R-1, R-2 and R-14) with the target protein were calculated from a native gel mobility shift assay (FIG. 16A).
(§4) Binding affinities were also assessed by flow cytometry (FIG. 28). […] To determine if the bound chimeras were internalized in the BAFF-R expressing cells, out Z-axis confocal microscopy was performed with Jeko-1 cells and CEM control cells incubated with Cy3-labeled transcripts as described above. […] To visualize the nucleus, the cells were stained with the nuclear dye Hoechst 33342 after incubation with Cy3-RNA.

[3] = target: T1, BAFF-R (B-cell activating factor …); experiment: EMSA; 8U linker; conditions: tags: ProSpect (Israel), human recombinant; label: 32P
Description: as §3
(§5) The binding affinities of the chimeras for BAFF-R protein were assessed by gel shift assay (FIG. 40C and FIG. 49A). […] To determine whether the bound chimera is internalized by BAFF-R expressing cells, real-time Z-axis confocal microscopy was performed (FIG. 41A-C and FIG. 49B). The Cy3-labeled chimeras were successfully internalized into BAFF-R expressing cells (Jeko-1 and Z138) after 5 h post treatment.

[4] = target: T1, BAFF-R (B-cell activating factor …); experiment: EMSA; high-salt binding buffer (10 mM HEPES pH 7.4, 150 mM NaCl, 1 mM CaCl2, 1 mM MgCl2, tRNA); about; conditions: tags: ProSpect (Israel), human recombinant; label: 5'-32P or Cy3
Description: as §1, §2

[5] = target: T1, BAFF-R (B-cell activating factor …); experiment: EMSA; parental R-1 in STAT3 chimera comparison; conditions: tags: ProSpect (Israel), human recombinant; label: 5'-32P or Cy3
Description: as §3, §5

[6] = target: T1, BAFF-R (B-cell activating factor …); experiment: EMSA; about; R-22 used as low-affinity negative control; conditions: tags: ProSpect (Israel), human recombinant; label: 32P
Description: as §3, §4

B1: R-14 aptamer (ssRNA)
RNA: GGGAGGACGAUGCGGAUAACUAUUGUGCUAGAGGGCUUAUUUAUGUGAGCCGGUUGAUAGUUGCGCAGACGACUCGCCCGA
modifications: 2'-F pyrimidines (2'-F-C, 2'-F-U)
B1 gave a Kd [1] of 96 nM.

B2: R-14 D-1 chimera (mixed)
RNA 1: GGGAGGACGAUGCGGAUAACUAUUGUGCUAGAGGGCUUAUUUAUGUGAGCCGGUUGAUAGUUGCGCAGACGACUCGCCCGAUUCCACAGAUGUGAAGUUCAUUUCCAA
RNA 2: UUGGAAAUGAACUUCACAUCUGUGGCA
modifications: 2'-F pyrimidines in transcribed aptamer-sense strand
Work on B2 yielded a Kd [2] of 80 nM.

B3: R-1 D-1-Mutated chimera (mixed)
RNA 1: GGGAGGACGAUGCGGGAGGCUCAACAAUGAUAGAGCCCGCAAUGUUGAUAGUUGUGCCCAGUCUGCAGACGACUCGCCCGAUUCUCCAGAUUCCAAGCACAUUGUGAA
RNA 2: UUCACAAUGUGCUUGGAAUCUGGAGCA
modifications: 2'-F pyrimidines in transcribed aptamer-sense strand
B3 was tested, and the Kd [2] was 51 nM.

B4: R-1 D-1 chimera (CCND1 siRNA design 1) (mixed)
RNA 1: GGGAGGACGAUGCGGGAGGCUCAACAAUGAUAGAGCCCGCAAUGUUGAUAGUUGUGCCCAGUCUGCAGACGACUCGCCCGAUUCCACAGAUGUGAAGUUCAUUUCCAA
RNA 2: UUGGAAAUGAACUUCACAUCUGUGGCA
modifications: 2'-F pyrimidines in transcribed aptamer-sense strand
B4 was tested, and the Kd [2] was 66 nM.

B5: R-1-STAT3 27-mer SWAP chimera (mixed)
RNA 1: GGGAGGACGAUGCGGGAGGCUCAACAAUGAUAGAGCCCGCAAUGUUGAUAGUUGUGCCCAGUCUGCAGACGACUCGCCCGAUUUUUUUUUCAGUCGUAUCUUUCUGCAGCUUCCGU
RNA 2: GGAAGCUGCAGAAAGAUACGACUGA
modifications: 2'-F pyrimidines in transcribed aptamer strand
In the case of B5, the Kd [3] is reported as 56 nM.

B6: R-14 D-2 chimera (mixed)
RNA 1: GGGAGGACGAUGCGGAUAACUAUUGUGCUAGAGGGCUUAUUUAUGUGAGCCGGUUGAUAGUUGCGCAGACGACUCGCCCGAUUUGUGCCACAGAUGUGAAGUUCAUUUCC
RNA 2: AAAUGAACUUCACAUCUGUGGCACA
modifications: 2'-F pyrimidines in transcribed aptamer-sense strand
With B6 the Kd [2] was 73 nM.

B7: R-1 D-2 chimera (CCND1 siRNA design 2) (mixed)
RNA 1: GGGAGGACGAUGCGGGAGGCUCAACAAUGAUAGAGCCCGCAAUGUUGAUAGUUGUGCCCAGUCUGCAGACGACUCGCCCGAUUUGUGCCACAGAUGUGAAGUUCAUUUCC
RNA 2: AAAUGAACUUCACAUCUGUGGCACA
modifications: 2'-F pyrimidines in transcribed aptamer-sense strand
B7 gave a Kd [2] of 126 nM.

B8: R-1 aptamer (ssRNA)
RNA: GGGAGGACGAUGCGGGAGGCUCAACAAUGAUAGAGCCCGCAAUGUUGAUAGUUGUGCCCAGUCUGCAGACGACUCGCCCGA
modifications: 2'-F pyrimidines (2'-F-C, 2'-F-U)
In the case of B8, the Kd [4] is reported as 47 nM and the Kd [5] is reported as 54 nM.

B9: R-22 D-1 chimera (mixed)
RNA 1: GGAGGACGAUGCGGAUCCUCCGAAGGUCGCGCCAACGUCACACAUUAAGCUUUUGUUCGUCUGCAGACGACUCGCCCGAUUCCACAGAUGUGAAGUUCAUUUCCAA
RNA 2: UUGGAAAUGAACUUCACAUCUGUGGCA
modifications: 2'-F pyrimidines in transcribed aptamer-sense strand
With B9 the Kd [6] was 191 nM.

B10: R-1-STAT3 27-mer OVH chimera (mixed)
RNA 1: GGGAGGACGAUGCGGGAGGCUCAACAAUGAUAGAGCCCGCAAUGUUGAUAGUUGUGCCCAGUCUGCAGACGACUCGCCCGAUUUUUUUUGAGAACGGAAGCUGCAGAAAGAUACGA
RNA 2: GUAUCUUUCUGCAGCUUCCGUUCUC
modifications: 2'-F pyrimidines in transcribed aptamer strand
B10 gave a Kd [3] of 35 nM.

Reference: patent publication US20160348113, “RNA APTAMERS AGAINST BAFF-R AS CELL-TYPE SPECIFIC DELIVERY AGENTS AND METHODS FOR THEIR USE” (CITY OF HOPE, published 2016)
